{"source": "paper PMC5449603", "binders": {"B1": {"name": "Duplex (FAM) (dsDNA)", "DNA 1": "GATACTATTGGGTGGGTAGGGTGGGTTTACATGT", "DNA 2": "ACATGTAAACCCACCCTACCCACCCAATAGTATC"}}, "assay_in_all_cases": "fluorescence anisotropy", "key": {"Sub1 [1]": {"target": "T1, Sub1 (Saccharomyces cerevisiae, UniProt P54000 1-292)", "T1 sequence": "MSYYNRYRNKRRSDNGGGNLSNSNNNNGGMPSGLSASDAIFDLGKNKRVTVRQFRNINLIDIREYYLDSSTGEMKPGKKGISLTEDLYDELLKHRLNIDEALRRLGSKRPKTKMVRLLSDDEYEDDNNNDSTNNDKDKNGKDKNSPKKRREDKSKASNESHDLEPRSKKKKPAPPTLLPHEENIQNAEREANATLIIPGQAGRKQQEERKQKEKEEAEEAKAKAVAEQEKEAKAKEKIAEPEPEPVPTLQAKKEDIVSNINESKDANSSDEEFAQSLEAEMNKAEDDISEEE"}, "Sub1 [2]": {"target": "T1, Sub1", "remark": "listed apart in the source"}, "PC4 (hSub1, p15)": {"target": "PC4 (hSub1, p15) (human, UniProt P53999 1-127)"}}, "note": "Like-named read-outs stand apart in the source and are kept apart here.", "data": [{"binder": "GAGCTGGGGTGAGCTGGGCTGAGCTGGGGTGAGCTGGGCTGAGCT (structured_DNA)", "note": "[SµG (FAM)]", "values": [{"measurement": "Kd", "setting": "Sub1 [1]", "result": "8.7 ± 1.7", "unit": "nM"}]}, {"binder": "GGTGTGTGGAGCGTGCGTTT (ssDNA)", "note": "[ssDNA (FAM)]", "values": [{"measurement": "Kd", "setting": "Sub1 [2]", "result": "21.2 ± 1.1", "unit": "nM"}, {"measurement": "Kd", "setting": "PC4 (hSub1, p15)", "result": "9 ± 0.9", "unit": "nM"}]}, {"binder": "B1", "values": [{"measurement": "binding result", "setting": "Sub1 [1]", "result": "no binding"}, {"measurement": "Kd", "setting": "PC4 (hSub1, p15)", "result": "38.7 ± 8", "unit": "nM"}]}]}
